Reference: patent US20240150489A1 (ICHNOS SCIENCES, published 2024)

Tests used:
[1] = biological target: T1, Human FcyRI (human, UniProt P12314 16-288, limits assumed); assay: SPR, antibody on Protein G chip, 1:1 binding model
T1 construct: also called FcγRIa

[2] = biological target: T2, Human FcyRIIA (human, UniProt P12318 34-208, limits assumed); assay: SPR; reference trastuzumab
T2 construct: also called FcγRIIa
T2 chain: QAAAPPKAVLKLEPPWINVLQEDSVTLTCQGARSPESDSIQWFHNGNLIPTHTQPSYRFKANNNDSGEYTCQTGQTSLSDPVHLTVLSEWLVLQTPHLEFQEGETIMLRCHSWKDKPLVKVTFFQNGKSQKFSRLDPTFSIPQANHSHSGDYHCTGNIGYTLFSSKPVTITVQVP

[3] = biological target: T3, Human FcyRIIB (human, UniProt P31994 46-217, limits assumed); assay: SPR; reference trastuzumab
T3 construct: also called FcγRIIb
T3 sequence (looked up): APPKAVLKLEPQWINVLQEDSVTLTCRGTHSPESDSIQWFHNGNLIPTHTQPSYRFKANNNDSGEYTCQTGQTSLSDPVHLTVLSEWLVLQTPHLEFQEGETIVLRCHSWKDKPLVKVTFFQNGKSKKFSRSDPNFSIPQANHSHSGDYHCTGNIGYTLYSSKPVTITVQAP

[4] = biological target: T1, Human FcyRI; assay: SPR; reference trastuzumab
[5] = biological target: T4, Human FcyRIIIA (human, UniProt P08637 17-193, limits assumed); assay: SPR; reference trastuzumab
T4 construct: also called FcγRIIIa

[6] = biological target: T5, Human FcRn (human, UniProt P55899 24-297, limits assumed); assay: SPR, antibody on Protein L chip, steady state, pH 6.0
T5 construct: Measured at pH 6.0; also called human FcRn receptor

[7] = biological target: T2, Human FcyRIIA; assay: SPR, antibody on Protein G chip, steady state
[8] = biological target: T3, Human FcyRIIB; assay: SPR, antibody on Protein G chip, steady state
[9] = biological target: T4, Human FcyRIIIA; assay: SPR, antibody on Protein G chip, steady state
[10] = biological target: T6, CD38 on cells (Daudi, Raji, KMS-12-PE, NCI-H929, KMS-12-BM) (human, UniProt P28907); assay: flow cytometry on Daudi cells (carry CD38 and CD47), anti-human IgG-Fc PE, GeoMFI; apparent whole-cell value, the anti-CD47 arm also binds
T6 construct: full-length, cell surface; These cells also carry CD47

[11] = biological target: T7, human FcRn-ECD-Avi-His / B2M complex (human, UniProt P61769 21-119); assay: SPR steady state, antibody captured with Human Fab Capture kit, FcRn analyte; reference trastuzumab control IgG1
T7 construct: B2M was cloned full length with its native leader; The alternative SPR method for BEAT CD38/CD47-60 says only 'FcRn' as analyte; the tie to the in-house complex is inferred; also called human FcRn/B2M complex

[12] = biological target: T6, CD38 on cells (Daudi, Raji, KMS-12-PE, …); assay: flow cytometry on KMS-12-PE cells (carry CD38 and CD47), anti-human IgG-Fc PE, GeoMFI; apparent whole-cell value, the anti-CD47 arm also binds
[13] = biological target: T6, CD38 on cells (Daudi, Raji, KMS-12-PE, …); assay: flow cytometry on NCI-H929 cells (carry CD38 and CD47), anti-human IgG-Fc PE, GeoMFI; apparent whole-cell value, the anti-CD47 arm also binds
[14] = biological target: T6, CD38 on cells (Daudi, Raji, KMS-12-PE, …); assay: flow cytometry on Raji cells (carry CD38 and CD47), anti-human IgG-Fc PE, GeoMFI; apparent whole-cell value, the anti-CD47 arm also binds
[15] = biological target: T6, CD38 on cells (Daudi, Raji, KMS-12-PE, …); assay: flow cytometry on KMS-12-BM cells (carry CD38 and CD47), anti-human IgG-Fc PE, GeoMFI; apparent whole-cell value, the anti-CD47 arm also binds
[16] = biological target: T8, CD47 on cells (Daudi cells; human red blood cells) (human, UniProt Q08722 19-323); assay: blocking of SIRPα-mIgG1 Fc binding to CD47 on Daudi cells, image-based readout with anti-mouse IgG Fc Alexa Fluor 647, % inhibition; the sheet calls the half-maximal value EC50
T8 construct: whole, on cells; These cells also carry CD38

[17] = biological target: T9, Avi-Tagged FcRn (Acrobiosystems, FCM-H82W2) (human, UniProt P55899 24-297, biotinylated (captured with Biotin CAPture kit)); assay: SPR steady state, FcRn captured on CAP chip, antibody analyte; reference trastuzumab control IgG1
T9 construct: also called human neonatal Fc receptor

[18] = biological target: Avi-Tagged FcγRIa (Acrobiosystems, FCA-H82E8) (UniProt P12314 16-288, biotinylated (captured with Biotin CAPture kit)); assay: SPR, FcγRIa captured on CAP chip, antibody analyte; reference trastuzumab control IgG1
[19] = biological target: T10, human FcγR2b-ECD-His (human, UniProt P31994 46-217); assay: SPR steady state, antibody on protein G chip, receptor analyte; reference trastuzumab control IgG1
T10 construct: His-tagged fusion made in house (UniProt P31994); also called FcγRIIb; Fc-receptor IIb
T10 sequence: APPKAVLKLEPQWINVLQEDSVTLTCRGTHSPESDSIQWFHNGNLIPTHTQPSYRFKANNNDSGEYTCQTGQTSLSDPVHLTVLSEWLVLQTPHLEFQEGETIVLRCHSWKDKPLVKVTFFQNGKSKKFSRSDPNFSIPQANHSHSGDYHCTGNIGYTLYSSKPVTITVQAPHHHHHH

[20] = biological target: T11, human FcγR3a-ECD-His (human, UniProt P08637 17-193); assay: as above
T11 construct: His-tagged fusion made in house (UniProt P08637); also called FcγRIIIa; Fc-receptor IIIa

[21] = biological target: T12, human FcγR2a-ECD-His (human, UniProt P12318 34-208); assay: as above
T12 construct: His-tagged fusion made in house (UniProt P12318); The SPR method names only 'Fc-receptors IIa, IIb, and IIIa'; also called FcγRIIa; Fc-receptor IIa
T12 chain: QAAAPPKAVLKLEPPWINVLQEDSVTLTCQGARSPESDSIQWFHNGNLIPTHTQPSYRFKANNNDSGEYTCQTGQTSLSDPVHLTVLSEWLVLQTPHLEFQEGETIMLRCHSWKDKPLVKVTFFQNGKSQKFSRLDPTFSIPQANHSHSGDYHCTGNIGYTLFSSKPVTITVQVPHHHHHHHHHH

B1: BEAT CD38/CD47-60 (bispecific antibody, human IgG1, kappa)
heavy 1: EVQLVESGGGLIQPGGSLRLSCAASGFTLSRNTMHWVRQAPGKGLEWVSVIYQSGVTRYADSVKSRFTISRDNSKNTLYLQMNSLRAEDTAVYYCARGRYGVAGGPGYAFDVWGQGTLVTVSSASTKGPSVFPLAPSSKSTSGGTAALGCLVKDYFPEPVTVSWNSGALTSGVHTFPAVLQSSGLYSLSSVVTVPSSSLGTQTYICNVNHKPSNTKVDKKVEPKSCDKTHTCPPCPAPELLGGPDVFLFPPKPKDTLMISRTPEVTCVVVDVSHEDPEVKFNWYVDGVEVHNAKTKPREEQYNSTYRVVSVLTVLHQDWLNGKEYKCKVNNKALPAPEEKTISKAKGQPREPAVYTLPPSREEMTKNQVKLVCLVTGFYPSDIAVEWESSGQPENNYYTTPPMLDSDGSFSLVSWLNVDKSRWQQGNIFSCSVMHEALHNRFTQKSLSLSPG
heavy 2: not shown
light: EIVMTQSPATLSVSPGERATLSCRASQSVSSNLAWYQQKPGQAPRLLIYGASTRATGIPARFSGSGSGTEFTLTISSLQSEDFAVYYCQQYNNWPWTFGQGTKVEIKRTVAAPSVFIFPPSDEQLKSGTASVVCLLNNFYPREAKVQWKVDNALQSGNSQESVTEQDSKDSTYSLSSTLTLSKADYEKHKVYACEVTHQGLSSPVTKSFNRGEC
notes: 2+1 biparatopic format; BEAT (A): S239D + I332E + S324N, BEAT (B): S324N; also called BEAT CD38/47-60; BEAT 38/47-60
Kd [1]: 0.07 nM | fold enhancement BEAT CD38/47-60 over trastuzumab [2]: 4.4 fold | fold enhancement BEAT CD38/47-60 over trastuzumab [3]: 6.7 fold | fold enhancement BEAT CD38/47-60 over trastuzumab [4]: 2.6 fold | fold enhancement BEAT CD38/47-60 over trastuzumab [5]: 5.6 fold | Kd [6]: 418 nM | Kd [7]: 110 nM | Kd [8]: 306 nM | Kd [9]: 15.1 nM | EC50 (read off the curve) [10]: ~4 nM | KD ratio [BEAT/Control IgG1] [11]: 0.5 ratio | EC50 (read off the curve) [12]: ~3 nM | EC50 (read off the curve) [13]: ~8 nM | EC50 (read off the curve) [14]: ~4 nM | EC50 (read off the curve) [15]: ~30 nM | IC50 (read off the curve) [16]: ~0.03 nM

B2: BEAT CD38/CD47-21 (bispecific antibody, human IgG1, kappa)
heavy 1: EVQLVESGGGLIQPGGSLRLSCAASGFTLSRNTMHWVRQAPGKGLEWVSVIYQSGVTRYADSVKSRFTISRDNSKNTLYLQMNSLRAEDTAVYYCARGRYGVAGGPGYAFDVWGQGTLVTVSSASTKGPSVFPLAPSSKSTSGGTAALGCLVKDYFPEPVTVSWNSGALTSGVHTFPAVLQSSGLYSLSSVVTVPSSSLGTQTYICNVNHKPSNTKVDKKVEPKSCDKTHTCPPCPAPELLGGPSVFLFPPKPKDTLMISRTPEVTCVVVDVSHEDPEVKFNWYVDGVEVHNAKTKPREEQYNSTYRVVSVLTVLHQDWLNGKEYKCKVNNKALPAPIEETISKAKGQPREPAVYTLPPSREEMTKNQVKLVCLVTGFYPSDIAVEWESSGQPENNYYTTPPMLDSDGSFSLVSWLNVDKSRWQQGNIFSCSVMHEALHNRFTQKSLSLSPG
heavy 2: QVQLVQSGAEVKKPGSSVKVSCKASGLPDATYAIGWVRQAPGQGLEWMGRIIPRLDAEHYAQKFQGRVTITADESTSTAYMELSSLRSEDTAVYYCARGLGYYLYSSYYFDIWGQGTLVTVSSASTKGPSVFPLAPSSKSTSGGTAALGCLVKDYFPEPVTVSWNSGALTSGVHTFPAVLQSSGLYSLSSVVTVPSSSLGTQTYICNVNHKPSNTKVDKKVEPKSCDKTHTCPPCPAPELLGGPSVFLFPPKPKDTLMISRTPEVTCVVVDVSHEDPEVKFNWYVDGVEVHNAKTKPREEQYNSTYRVVSVLTVLHQDWLNGKEYKCKVNNKALPAPIEETISKAKGQPREPEVATFPPSRDELTKNQVTLVCLVTGFYPSDIAVEWESNGQPENNYKTDPPLLESQGSFALSSRLRVDKSRWQQGNVFSCSVMHEALHNHYTQKSLSLSPG
light: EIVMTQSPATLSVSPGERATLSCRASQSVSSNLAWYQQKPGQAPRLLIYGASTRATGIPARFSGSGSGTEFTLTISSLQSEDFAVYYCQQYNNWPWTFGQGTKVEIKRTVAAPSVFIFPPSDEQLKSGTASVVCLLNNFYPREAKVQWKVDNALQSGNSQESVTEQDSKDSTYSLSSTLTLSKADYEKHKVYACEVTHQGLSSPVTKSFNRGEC
notes: 1+1 format; Fc mutations S324N + K334E in both heavy chains
KD ratio [BEAT/Control IgG1] [17]: 0.4 ratio | fold gain in affinity vs control [18]: 1030 fold | fold gain in affinity vs control [19]: 0.1 fold | fold gain in affinity vs control [20]: 2 fold | fold gain in affinity vs control [21]: 1 fold

B3: BEAT CD38/CD47-42 (bispecific antibody, human IgG1, kappa)
heavy 1: EVQLVESGGGLIQPGGSLRLSCAASGFTLSRNTMHWVRQAPGKGLEWVSVIYQSGVTRYADSVKSRFTISRDNSKNTLYLQMNSLRAEDTAVYYCARGRYGVAGGPGYAFDVWGQGTLVTVSSASTKGPSVFPLAPSSKSTSGGTAALGCLVKDYFPEPVTVSWNSGALTSGVHTFPAVLQSSGLYSLSSVVTVPSSSLGTQTYICNVNHKPSNTKVDKKVEPKSCDKTHTCPPCPAPELLGGPDVFLFPPKPKDTLMISRTPEVTCVVVDVSHEDPEVKFNWYVDGVEVHNAKTKPREEQYNSTYRVVSVLTVLHQDWLNGKEYKCKVNNKALPAPEEKTISKAKGQPREPAVYTLPPSREEMTKNQVKLVCLVTGFYPSDIAVEWESSGQPENNYYTTPPMLDSDGSFSLVSWLNVDKSRWQQGNIFSCSVMHEALHNRFTQKSLSLSPG
heavy 2: QVQLVQSGAEVKKPGSSVKVSCKASGLPDATYAIGWVRQAPGQGLEWMGRIIPRLDAEHYAQKFQGRVTITADESTSTAYMELSSLRSEDTAVYYCARGLGYYLYSSYYFDIWGQGTLVTVSSASTKGPSVFPLAPSSKSTSGGTAALGCLVKDYFPEPVTVSWNSGALTSGVHTFPAVLQSSGLYSLSSVVTVPSSSLGTQTYICNVNHKPSNTKVDKKVEPKSCDKTHTCPPCPAPELLGGPSVFLFPPKPKDTLMISRTPEVTCVVVDVSHEDPEVKFNWYVDGVEVHNAKTKPREEQYNSTYRVVSVLTVLHQDWLNGKEYKCKVNNKALPAPIEKTISKAKGQPREPEVATFPPSRDELTKNQVTLVCLVTGFYPSDIAVEWESNGQPENNYKTDPPLLESQGSFALSSRLRVDKSRWQQGNVFSCSVMHEALHNHYTQKSLSLSPG
light: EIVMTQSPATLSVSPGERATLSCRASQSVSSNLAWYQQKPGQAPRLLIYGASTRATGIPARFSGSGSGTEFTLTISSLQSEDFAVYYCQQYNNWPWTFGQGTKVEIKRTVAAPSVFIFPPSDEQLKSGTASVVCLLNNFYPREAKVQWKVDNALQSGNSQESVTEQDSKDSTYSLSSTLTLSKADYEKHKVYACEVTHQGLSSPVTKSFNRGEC
notes: 1+1 format; BEAT (A): S239D + I332E + S324N, BEAT (B): S324N
KD ratio [BEAT/Control IgG1] [17]: 0.5 ratio | fold gain in affinity vs control [18]: 3750 fold | fold gain in affinity vs control [19]: 14 fold | fold gain in affinity vs control [20]: 11 fold | fold gain in affinity vs control [21]: 6 fold
